Laboratory results as given in patent US20230406921A1.

Tests used:
[1] = target: CD47 on the surface of human red blood cells (human) (UniProt Q08722); assay: FACS, human red blood cells, control antibody, 1000 nM
[2] = target: CD47 on the surface of tumor cells (human) (UniProt Q08722); assay: FACS, SKOV-3 tumor cells, control antibody, 100 nM

## human IgG4 (antibody)
[1]
  Binding to human red blood cells (MFI): 797 MFI
[2]
  Binding to tumor cells (MFI): 4640 MFI
